Assay results taken from the supplement of paper PMC9732359.
± gives the uncertainty stated by the source.

Test: protein stability index of a GFP-peptide fusion (yeast GPS) (PSI 1-4); higher = more stable; sorted into four equal gates, so the index is relative within each strain
Summary of the method: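 Peptides tiling yeast proteins in 17-residue segments were fused downstream of GFP, with Cherry expressed from the same plasmid. As a pooled library in yeast, mid-log cultures grown in leucine-free medium were sorted into four equal gates by GFP/Cherry fluorescence ratio. Gate plasmids were PCR-amplified and Illumina-sequenced, and barcodes linked reads to strains. Each peptide received a protein stability index equal to the sum of each gate's read frequency times its gate number.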

| Sequence | protein stability index (doa10∆) | protein stability index (pdr5∆) | protein stability index (san1∆) | protein stability index (ubr1∆) |
| --- | --- | --- | --- | --- |
| YRATSLDPSLRAPIYHS [YML031W/NDC1] | 2.4 ± 0.068 | 2.68 ± 0.055 | 2.44 ± 0.058 | 2.44 ± 0.037 |
| YLKKREAGEVKDDGAFV [RPL10] | 3.16 ± 0.11 | 2.8 ± 0.2 | 3.37 ± 0.044 | 3.27 ± 0.1 |
| LNLLSQNNTTKFHSELQ [RPN12] | 2.47 ± 0.091 | 2.24 ± 0.078 | 1.67 ± 0.12 | 2.16 ± 0.12 |
| EIVNMVPSHVPQVLINR [SIR2] | 3.13 ± 0.11 | 2.93 ± 0.079 | 2.53 ± 0.11 | 2.88 ± 0.054 |
| NDLDYDLIADTITNSSS [YML103C/NUP188] | 2.9 ± 0.061 | 3.06 ± 0.067 | 2.99 ± 0.036 | 3.02 ± 0.048 |
| PDENHDNTSHDEQDDDN [BRN1] | 3.11 ± 0.1 | 3.2 ± 0.095 | 3.05 ± 0.12 | 3.11 ± 0.1 |
| KLVRESELLGGTFKSTL [QCR2] | 2.53 ± 0.12 | 2.82 ± 0.1 | 2.35 ± 0.093 | 3.18 ± 0.063 |
| PKVPEDIYKSHLDNSKS [RPN1] | 3.1 ± 0.12 | 2.98 ± 0.12 | 2.93 ± 0.1 | 3.24 ± 0.17 |
| FVHSVKKFLRVRIFTKI [SRB4] | 2.21 ± 0.082 | 2.07 ± 0.072 | 1.22 ± 0.12 | 2.07 ± 0.059 |
| TPNLWAEQPLPVSPLDI [RPS2] | 1.41 ± 0.045 | 2.07 ± 0.06 | 2.31 ± 0.056 | 1.58 ± 0.066 |
| DAGKLVYVTGGRNLGRI [RPS4A] | 2.76 ± 0.1 | 1.99 ± 0.12 | 3.08 ± 0.17 | 1.89 ± 0.28 |
| GSSGGVIRMVVLTAAGV [PRE3] | 2.33 ± 0.086 | 1.74 ± 0.075 | 2.64 ± 0.12 | 1.74 ± 0.049 |
| YSEEPREKVRKLSQYVQ [FAS2] |  |  |  | 3.16 ± 0.26 |
| REEAIGFIRGSNKFAEV [SMC3] | 3.01 ± 0.093 | 2.94 ± 0.074 | 2.95 ± 0.094 | 2.67 ± 0.08 |
| APSIGRWYQLIATGCKD [YGL100W/SEH1] | 1.52 ± 0.089 | 1.65 ± 0.068 | 1.64 ± 0.11 | 2.17 ± 0.071 |
| PDIVGHEFTLSFTYELK [BRR2] | 2 ± 0.038 | 2.06 ± 0.036 | 2.15 ± 0.05 | 2.21 ± 0.033 |
| AKKTSTSVDGKKRSKVR [HTB2] | 3.05 ± 0.19 | 2.98 ± 0.23 | 2.96 ± 0.27 | 3.31 ± 0.075 |
| INMADRSLGLQQVVCIF [POP6] | 1.39 ± 0.093 | 1.3 ± 0.11 | 1.4 ± 0.15 | 1.06 ± 0.11 |
| IHIQETQEFSKNYTTET [SIR3] | 3.39 ± 0.1 | 3.15 ± 0.11 | 3.4 ± 0.16 | 3.31 ± 0.069 |
| SEKKDTDGADENVQIGE [SRB4] | 2.65 ± 0.12 | 3.31 ± 0.17 |  | 3.06 ± 0.18 |

| Sequence | protein stability index (doa10∆) | protein stability index (pdr5∆) | protein stability index (san1∆) | protein stability index (ubr1∆) |
| --- | --- | --- | --- | --- |
| NQTRKAHRNGIKKPKTY [RPL29] | 2.65 ± 0.083 | 2.98 ± 0.072 | 2.92 ± 0.058 | 2.99 ± 0.063 |
| SNGNNLPLNKPRLEKLI [RGR1] | 3.27 ± 0.052 | 3.36 ± 0.056 | 3.18 ± 0.055 | 3.16 ± 0.063 |
| KRGEVVKIIRKSETSGR [RPB5] | 3.04 ± 0.082 | 3.17 ± 0.057 | 3.2 ± 0.064 | 3.05 ± 0.058 |
| QERKDFLKKVMDTIQDK [ECM29] | 3.12 ± 0.13 | 3.41 ± 0.12 | 3.35 ± 0.11 | 3.17 ± 0.072 |
| HTSSNSREIAQPSSSRY [SMB1] | 3.17 ± 0.11 | 2.97 ± 0.065 | 3.02 ± 0.054 | 3.22 ± 0.058 |
| YRSCETQDESEIKDAET [SMC4] | 3.77 ± 0.25 |  | 3.31 ± 0.16 |  |
| VNTTRRFQYSDDEPAEK [YMR129W/POM152] | 2.87 ± 0.22 | 3.17 ± 0.17 | 2.86 ± 0.19 | 2.95 ± 0.19 |
| RLGSEADAKAFLDSMAQ [FAS2] | 3.38 ± 0.091 | 3.44 ± 0.081 | 3.21 ± 0.062 | 3.33 ± 0.11 |
| AYSNTNTNTENENRNTG [SNF11] | 3.1 ± 0.14 | 2.95 ± 0.065 | 2.95 ± 0.071 | 2.95 ± 0.072 |
| SKFHFSWNESEDTLSGY [PRP28] | 3.07 ± 0.12 | 3.19 ± 0.12 | 3.2 ± 0.075 | 3.47 ± 0.058 |
| LIGSIRFPTKFVTQFRH [RET1] | 1.57 ± 0.056 | 1.41 ± 0.057 | 1.29 ± 0.16 | 1.31 ± 0.048 |
| GGVGSMGAINNNIPSLT [SNF6] | 3.26 ± 0.11 | 3.34 ± 0.09 | 3.39 ± 0.072 | 3.32 ± 0.1 |
| NDDFSEVFEFKTFNKIQ [BRR2] | 2.01 ± 0.051 | 2.06 ± 0.061 | 2.24 ± 0.083 | 2.64 ± 0.097 |
| RIKEMYWKLWIDEPFNL [FAS1] | 3.39 ± 0.086 | 3.25 ± 0.078 | 2.76 ± 0.12 | 2.91 ± 0.075 |
| EITEKKNGESLEGEEIK [RPN1] |  | 3.03 ± 0.3 |  |  |
| NLAIVELVRLLIIDEIH [BRR2] | 2.58 ± 0.069 | 2.38 ± 0.08 | 2.85 ± 0.088 | 2.36 ± 0.062 |
| DDENNPSHYPHPYEYEI [RRP6] | 3.03 ± 0.064 | 2.89 ± 0.063 | 2.74 ± 0.054 | 2.89 ± 0.029 |
| LEKCEAEFKKRKIEAET [YCS4] | 2.79 ± 0.14 | 3.17 ± 0.084 | 3.3 ± 0.21 | 2.98 ± 0.14 |
| PLKYTKLIAAAEDGSRS [SNF6] | 1.3 ± 0.23 | 1.49 ± 0.11 | 1.19 ± 0.21 | 1.57 ± 0.18 |
| YVRKHDPLNSNIFSEAV [PRP28] | 2.9 ± 0.11 | 2.76 ± 0.089 | 2.9 ± 0.055 | 3.1 ± 0.12 |
